Substitutions are numbered along the chain they refer to.
Key:
calcitonin = molecular target: T1, calcitonin (Homo sapiens, UniProt P01258); test: Solution competition by Biacore: calcitonin; assay type: binding; settings: pre-incubation with an excess of peptide
T1 sequence (P01258 85-116 limits assumed): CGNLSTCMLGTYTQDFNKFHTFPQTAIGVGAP
Excerpt: (§1) FIG. 5: Solution competition by Biacore: CGRP, CGRP fragments or peptides related in sequence to CGRP were used to determine the specificity of G1.
(§2) We determined the specificity of antibody G1 to human or rat CGRP by using the Biacore chip to “probe” the free concentration of a premixed complex of mAb+peptide.

adrenomedullin = molecular target: T2, adrenomedullin (Homo sapiens, UniProt P35318); test: Solution competition by Biacore: adrenomedullin; assay type: binding; settings: pre-incubation with an excess of peptide
T2 sequence (P35318 95-146 limits assumed): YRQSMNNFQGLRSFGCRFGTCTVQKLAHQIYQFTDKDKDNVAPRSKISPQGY
Excerpt: as §1, §2

[1] = tested on: neurogenic skin flare rat model; test: Neurogenic skin flare model (saphenous nerve stimulation, laser Doppler blood flow); assay type: in vivo; settings: for start of significant decrease in blood flow response / development of neurogenic flare in vivo: rat
Protocol: FIG. 7: Data showing G1 inhibits neurogenic flare in the skin starting from 90 min post-treatment. G1 was administered by intravenous administration (1 ml/kg). Data are from 6-8 or 13 rats per group. *p=0.05, **p=0.01 vs vehicle (phosphate buffered saline) treated group at each time point (AVOVA).
Using a neurogenic skin flare rat model the efficacy of G1 was tested for its ability to block CGRP effect in vivo. The saphenous nerve in the rat is electrically stimulated causing CGRP release from nerve endings and leading to vasodilation, the resulting changes in blood flow can be measured using laser Dopler methods.
Changes in blood flow parameters were expressed as the area under the curve (AUC, change in arbitrary Doppler flux units multiplied by time). CGRP receptor antagonist CGRP8-37 (400 nmol/kg, i.v.) was used as a positive control to validate the specificity of the model (data not shown). To determine the effect of G1 prior to dosing for each animal, the baseline blood flow response to stimulation was established with two saphenous nerve stimulations each 30 minutes apart. Rats were treated with G1 after the blood flow response of the second stimulation had returned to baseline levels (approximately 10 minutes post stimulation) and an additional four stimulations at 30 minute intervals were performed.

[2] = tested on: OA hind limb of the rat (MMT); test: Osteoarthritis pain model (transection of the medial meniscus, MMT), weight bearing; assay type: in vivo
Protocol: FIG. 1: Osteoarthritis pain model. […] Both antibodies were dissolved in a vehicle solution containing PBS+0.01% Tween 20. Celecoxib was used as positive control in the study. It was suspended in 0.5% methylcellulose and 0.025% Tween-20 and was administered by oral gavage (1 ml/kg) at 30 mg/kg, twice a day throughout the study period. Pain responses were assessed on day 2, 3, 7 and 10 following initiation of the pharmacology study (day 0) and were assessed in a fully blinded fashion. Data re the mean±SEM of 6 rats per group. *p<0.05 and p<0.01 vs baseline value (Dunnett's test in GraphPad Prism). In the figure, from left to right, bar 1=baseline, bars 2-5=null antibody, bars 6-9=1 mg/ml G2, bars 10-13=10 mg/ml G2, bars 14-17=Celecoxib 30 mg/ml.
Transection of the medial meniscus (MMT) in one hind knee of the rat results in the development of cartilage lesions and other changes in the joint similar to those that occur in OA. The resulting joint pain leads to the development of sustained changes in weight bearing (assessed using an incapacitance meter) in the rat hind limbs and mechanical (tactile) allodynia (assessed using von Frey filaments), in the hind paw, lasting several weeks. Studies were carried out accordingly to a blind protocol, where the investigator was not aware of the identity of the compound/control or the treatment of the animal.

human or rat CGRP = test: Solution competition by Biacore: human or rat CGRP; assay type: binding; settings: premixed mAb+peptide
Excerpt: as §1, §2

amylin = molecular target: T3, amylin (Homo sapiens, UniProt P10997); test: Solution competition by Biacore: amylin; assay type: binding; settings: pre-incubation with an excess of peptide
T3 sequence (P10997 34-70 limits assumed): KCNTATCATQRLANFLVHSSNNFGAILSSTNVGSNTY
Excerpt: as §1, §2

rat = test: Gastro-intestinal adverse effects in-vivo study
rats = test: Long term observation for adverse CNS events (dependence indicators); assay type: in vivo, rat; settings: in comparison to control animals
rat α-CGRP = molecular target: T4, rat α-CGRP (Rattus norvegicus, UniProt P01256); test: Biacore binding affinity, N-biotinylated rat α-CGRP on chip
T4 construct: CGRP (calcitonin gene-related peptide) is a 37 amino acid neuropeptide
T4 sequence (P01256 83-119 limits assumed): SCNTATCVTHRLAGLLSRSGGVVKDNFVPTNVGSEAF
Excerpt: (§3) G1 was titrated over the chip surface Binding affinities were deduced from the quotient of the kinetic rate constants (KD=koff/kon) see Table 1.

[3] = tested on: 25-37 human α-CGRP fragment; test: Epitope identification, alanine scan of C-terminal CGRP fragment (Biacore 3000); assay type: binding; settings: Fab fragments, positions 27-37 mutated to alanine, 25° C.
Protocol: (§4) FIG. 4: Alanine scan using a C-terminal CGRP fragment (CGRP 25-37).
(§5) Interaction analysis was conducted at 25° C. on a Biacore 3000™ system equipped with streptavidin-coated (SA) sensor chips (Biacore AB, Uppsala, Sweden) using a standard Biacore running buffer (HBS-P). […] Each amino acid between position 27-37 was then mutated individually to alanine and expressed the fold loss in affinity compared to the wild-type fragment. […] Purified Fab fragments of antibody G1 were generated. Fab fragments were titrated over the chip using 1 μM as the top concentration of a two-fold dilution series. Association and dissociation phases were monitored at 100 μl/min for 1 minute and 5 minutes respectively. Surfaces were regenerated with a mixture of 35% ethanol+25 mM NaOH+0.5M NaCl.

[4] = molecular target: 25-37 human α-CGRP fragment (Homo sapiens, UniProt P06881); test: as above; assay type: binding; settings: 25° C.
Protocol: as §4, §5

human α-CGRP [5] = molecular target: T5, human α-CGRP (Homo sapiens, UniProt P06881); test: Biacore binding affinity, N-biotinylated human α-CGRP on chip; set-up: as full-length N-biotinylated human α-CGRP
T5 sequence (P06881 83-119 limits assumed): T4 sequence (P01256 83-119 limits assumed) with S1A, N3D, D25N, E35K
Excerpt: as §3

human β-CGRP = molecular target: T6, human β-CGRP (Homo sapiens, UniProt P10092); test: Biacore binding affinity, N-biotin β-human CGRP on chip; settings: 37 ° C.
T6 construct: CGRP (calcitonin gene-related peptide) is a 37 amino acid neuropeptide
T6 sequence (P10092 82-118 limits assumed): T4 sequence (P01256 83-119 limits assumed) with S1A, V22M, D25S, E35K
Excerpt: as §3

human α-CGRP [6] = molecular target: T5, human α-CGRP; test: Binding assay: blocking human α-CGRP from binding to the CGRP1-receptor in SK-N-MC cells; set-up: CGRP (calcitonin gene-related peptide) is a 37 amino acid neuropeptide; host or cells: SK-N-MC cells (endogenous receptor); settings: FIG. 2
rat β-CGRP = molecular target: T7, rat β-CGRP (Rattus norvegicus, UniProt P10093, R105S); test: Biacore binding affinity, N-biotin β-rat CGRP on chip; settings: 37 ° C.
T7 construct: CGRP (calcitonin gene-related peptide) is a 37 amino acid neuropeptide
T7 sequence (P10093 89-125 R105S limits assumed): T4 sequence (P01256 83-119 limits assumed) with E35K
Excerpt: as §3

CNS penetration = settings: in vivo
[7] = Plasma exposure of antibody in the OA pain study; assay type: in vivo; settings: rat
Protocol: This effect lasted 10 days post administration when the plasma exposure of antibody G2 achieved an average value of 65.1±3 ug/ml (6.3±0.3 ug/ml, for the lower dose at 10 days post IV).

G1: humanized IgG2Δa monoclonal anti-CGRP antagonist antibody, vectors ATCC PTA-6867 and PTA-6866; variable regions SEQ ID Nos. 1 and 2 [Antibody G1]
complex formation with calcitonin (calcitonin): did not form a complex
complex formation with adrenomedullin (adrenomedullin): did not form a complex
effect in further neurogenic flare and vasodilatation model tests ([1]; 7 days post IV dosing): marked effect
start of inhibition of neurogenic flare in the skin ([1]; FIG. 7, intravenous administration): 90 min post-treatment
start of significant decrease in blood flow response ([1]; 1 mg/kg IV): 120 minutes post dose
start of significant decrease in blood flow response ([1]; 10 mg/kg IV): 90 minutes post dose
development of neurogenic flare in vivo [1]: prevent the development of neurogenic flare in vivo
predicted ED50 ([1]; saphenous nerve stimulation model): 6 µg/mL
shift in weight bearing on the OA limb ([2]; repeat experiments, buffer as negative control): reversed the shift in weight bearing on the OA limb to normal value
Biacore response after pre-incubation with human or rat CGRP (human or rat CGRP): fully blocked
complex formation with amylin (amylin): did not form a complex
adverse gastro intestinal effects on behaviour, food intake, stool production or histopathology (rat; 1 week comparative study): no adverse gastro intestinal effects were observed
adverse CNS events such as sedation or stimulation/euphoric behaviour (rats): did not reveal adverse CNS events
koff (rat α-CGRP; 25 ° C.): 6.18e-05 s⁻¹
kon (rat α-CGRP; 25 ° C.): 50800 M⁻¹ s⁻¹
koff (rat α-CGRP; 37 ° C.): 0.000399 s⁻¹
kon (rat α-CGRP; 37 ° C.): 155000 M⁻¹ s⁻¹
alanine scan result, binding region (epitope) [3]: binds to the C-terminal region of human α-CGRP, particularly residues 25 to 37
affinity of N-biotinylated 25-37 human α-CGRP fragment vs full-length N-biotinylated human α-CGRP [4]: bound with the same affinity
koff (human α-CGRP [5]; 25 ° C.): 7.8e-06 s⁻¹
kon (human α-CGRP [5]; 25 ° C.): 186000 M⁻¹ s⁻¹
koff (human α-CGRP [5]; 37 ° C.): 3.63e-05 s⁻¹
kon (human α-CGRP [5]; 37 ° C.): 587000 M⁻¹ s⁻¹
koff (human β-CGRP): 6.98e-05 s⁻¹
kon (human β-CGRP): 451000 M⁻¹ s⁻¹
inhibition of binding of α-CGRP to the CGRP1 receptor (human α-CGRP [6]): inhibits the binding of α-CGRP to the CGRP1 receptor
koff (rat β-CGRP): 7.85e-05 s⁻¹
kon (rat β-CGRP): 516000 M⁻¹ s⁻¹
CNS penetration / crossing of blood brain barrier (CNS penetration): Neither antibody G1 nor antibody G2 demonstrate CNS penetration

B1: G2: anti-rat CGRP mouse monoclonal antibody (Wong H C et al. 1993); variable regions SEQ ID Nos. 19 and 20; RN4901 = murine tool in Table 1 legend (antibody, V domains shown)
VH: EVQLQQSGPELVKPGASVKMSCKASGYTFTSSVMHWVKQKPGQGLEWIGYINPYNDGTKYNEKFKGKATLTSDKSSSTAYMELSSLTSEDSAVYYCAKGGNDGYWGQGTTLTVSS
VL: EIVLTQSPTTMAASPGEKITITCSASSSISSIYLHWYQQKPGFSPKVLIYRASNLASGVPARFSGSGSGTSYSLTIGTMEAEDVATYYCQQGSTIPFTFGSGTKLEIK
modifications: Synthetic polypeptide, Antibody G2 heavy chain variable region; Synthetic polypeptide, Antibody G2 light chain variable region
development of neurogenic flare in vivo [1]: prevent the development of neurogenic flare in vivo
duration of effect on weight bearing ([2]; 10 mg/kg, IV): 10 days post administration
weight bearing deficit of the OA hind limb ([2]; 10 mg/kg, IV): reversed weight bearing deficit of the OA hind limb
weight bearing deficit of the OA hind limb ([2]; lower dose (1 mg/kg, IV)): No effect
adverse gastro intestinal effects on behaviour, food intake, stool production or histopathology (rat; 1 month study): no adverse gastro intestinal effects were observed
adverse CNS events such as sedation or stimulation/euphoric behaviour (rats): did not reveal adverse CNS events
plasma exposure, average value ([7]; 10 mg/kg IV, 10 days post administration): 65.1 ± 3 µg/mL
plasma exposure, average value ([7]; lower dose, 10 days post IV): 6.3 ± 0.3 µg/mL
CNS penetration / crossing of blood brain barrier (CNS penetration): Neither antibody G1 nor antibody G2 demonstrate CNS penetration
